Measured values published in US20230125561A1.

Target: SARS-CoV-2 Spike S1 protein, B.1.1.7 (UK (Kent)) variant (SARS-CoV-2) (UniProt P0DTC2)
Assay: ELISA
Settings: designed binder

## Neumifil (HEX17: trimeric (hexavalent) form based on S. pneumoniae CBM40)
  EC50: 0.137 µg/mL
